Residue numbers refer to the chain shown, from its start. Names and notes keep the numbering of the source.

The target in assay [1] is Human CD137 ECD (human). Description: single mutant vs template dBBDu183H.
Assay [2] has as its target Human CD137 ECD (human). Description: SPR, vs parent H183/L072.

Human CD137 ECD (human), sequence (chain, as listed by the source limits assumed): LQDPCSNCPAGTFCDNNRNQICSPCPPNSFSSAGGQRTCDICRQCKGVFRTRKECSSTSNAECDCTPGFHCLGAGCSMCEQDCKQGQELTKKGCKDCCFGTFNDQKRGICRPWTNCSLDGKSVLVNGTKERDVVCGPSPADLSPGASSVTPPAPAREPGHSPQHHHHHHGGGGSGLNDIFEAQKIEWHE

B1: H183/L072 VH F29A (antibody, name in Kabat numbering, V domains shown)
VH: QVQLVESGGGLVQPGRSLRLSCAASGFTASNAWMHWVRQAPGKGLEWVAQIKDKGNAYAAYYAPSVKGRFTISRDDSKNSIYLQMNSLKTEDTAVYYCHYVHYASASTVLPAFGVDAWGQGTTVTVSS
VL: DIVMTQSPLSLPVTPGEPASISCQASQELVHMNRNTYLHWYQQKPGQAPRLLIYKVSNRFPGVPDRFSGSGSGTDFTLKISRVEAEDVGVYYCAQGTSVPFTFGQGTKLEIK
Take B1: in assay [1], the fold change of affinity turned out to be 0 fold.

B2: dBBDu183H P100eY / dBBDu072L (antibody, name in Kabat numbering, V domains shown)
VH: B1 VH with A29F, P111Y
VL: B1 VL
Turning to B2, in assay [2], the fold change of affinity was found to be 0 fold.

B3: dBBDu183H A102Y / dBBDu072L (antibody, name in Kabat numbering, V domains shown)
VH: B1 VH with A29F, A117Y
VL: B1 VL
In the case of B3, the fold change of affinity in assay [2] turned out to be 0 fold.

B4: dBBDu183H V63Y / dBBDu072L (antibody, name in Kabat numbering, V domains shown)
VH: B1 VH with A29F, V66Y
VL: B1 VL
Regarding B4, the fold change of affinity in assay [2] is 0 fold.

B5: dBBDu183H V100iY / dBBDu072L (antibody, name in Kabat numbering, V domains shown)
VH: B1 VH with A29F, V115Y
VL: B1 VL
B5: the fold change of affinity in assay [2] turned out to be 0 fold.

B6: dBBDu183H A98Y / dBBDu072L (antibody, name in Kabat numbering, V domains shown)
VH: B1 VH with A29F, A104Y
VL: B1 VL
B6: the fold change of affinity in assay [2] came to 0 fold.

B7: H183/L072 VH H35A (antibody, name in Kabat numbering, V domains shown)
VH: B1 VH with A29F, H35A
VL: B1 VL
Turning to B7, the fold change of affinity in assay [1] was found to be 0 fold.

B8: dBBDu183H A100fY / dBBDu072L (antibody, name in Kabat numbering, V domains shown)
VH: B1 VH with A29F, A112Y
VL: B1 VL
For the molecule B8, the fold change of affinity in assay [2] was determined as 0 fold.

B9: H183/L072 VH W33I (antibody, name in Kabat numbering, V domains shown)
VH: B1 VH with A29F, W33I
VL: B1 VL
In the case of B9, the fold change of affinity in assay [1] came out at 0 fold.

B10: H183/L072 VH N53I (antibody, name in Kabat numbering, V domains shown)
VH: B1 VH with A29F, N56I
VL: B1 VL
As to B10, the fold change of affinity in assay [1] came out at 0 fold.

B11: dBBDu183H T100bW / dBBDu072L (antibody, name in Kabat numbering, V domains shown)
VH: B1 VH with A29F, T108W
VL: B1 VL
Regarding B11, the fold change of affinity in assay [2] was found to be 0 fold.

B12: H183/L072 VH D52aA (antibody, name in Kabat numbering, V domains shown)
VH: B1 VH with A29F, D53A
VL: B1 VL
For the molecule B12, the fold change of affinity in assay [1] is 0 fold.

B13: dBBDu183H D101Y / dBBDu072L (antibody, name in Kabat numbering, V domains shown)
VH: B1 VH with A29F, D116Y
VL: B1 VL
B13: in assay [2], the fold change of affinity is 0 fold.

B14: dBBDu183H Y94W / dBBDu072L (antibody, name in Kabat numbering, V domains shown)
VH: B1 VH with A29F, Y100W
VL: B1 VL
Regarding B14, in assay [2], the fold change of affinity is 0 fold.

B15: dBBDu183H L100dY / dBBDu072L (antibody, name in Kabat numbering, V domains shown)
VH: B1 VH with A29F, L110Y
VL: B1 VL
Regarding B15, the fold change of affinity in assay [2] came to 0 fold.

B16: dBBDu183H D101W / dBBDu072L (antibody, name in Kabat numbering, V domains shown)
VH: B1 VH with A29F, D116W
VL: B1 VL
As for B16, in assay [2], the fold change of affinity amounted to 0 fold.

B17: dBBDu183H G100hW / dBBDu072L (antibody, name in Kabat numbering, V domains shown)
VH: B1 VH with A29F, G114W
VL: B1 VL
On to B17, for which the fold change of affinity in assay [2] worked out at 0 fold.

B18: dBBDu183H V95W / dBBDu072L (antibody, name in Kabat numbering, V domains shown)
VH: B1 VH with A29F, V101W
VL: B1 VL
For the molecule B18, the fold change of affinity in assay [2] was 0 fold.

B19: H183/L072 VH Y55I (antibody, name in Kabat numbering, V domains shown)
VH: B1 VH with A29F, Y58I
VL: B1 VL
As to B19, the fold change of affinity in assay [1] was determined as 0 fold.

B20: dBBDu183H S100aY / dBBDu072L (antibody, name in Kabat numbering, V domains shown)
VH: B1 VH with A29F, S107Y
VL: B1 VL
As for B20, the fold change of affinity in assay [2] came out at 0 fold.

B21: H183/L072 VH M34A (antibody, name in Kabat numbering, V domains shown)
VH: B1 VH with A29F, M34A
VL: B1 VL
Turning to B21, the fold change of affinity in assay [1] came to 0 fold.

B22: dBBDu183H G100hY / dBBDu072L (antibody, name in Kabat numbering, V domains shown)
VH: B1 VH with A29F, G114Y
VL: B1 VL
For B22, the fold change of affinity in assay [2] worked out at 0 fold.

B23: H183/L072 VH K52A (antibody, name in Kabat numbering, V domains shown)
VH: B1 VH with A29F, K52A
VL: B1 VL
With B23, the fold change of affinity in assay [1] came to 0 fold.

B24: H183/L072 VH D52aI (antibody, name in Kabat numbering, V domains shown)
VH: B1 VH with A29F, D53I
VL: B1 VL
For B24, the fold change of affinity in assay [1] turned out to be 0 fold.

B25: H183/L072 VH K52I (antibody, name in Kabat numbering, V domains shown)
VH: B1 VH with A29F, K52I
VL: B1 VL
In the case of B25, in assay [1], the fold change of affinity is 0 fold.

B26: H183/L072 VH D52aL (antibody, name in Kabat numbering, V domains shown)
VH: B1 VH with A29F, D53L
VL: B1 VL
With B26, the fold change of affinity in assay [1] is 0 fold.

B27: H183/L072 VH N53A (antibody, name in Kabat numbering, V domains shown)
VH: B1 VH with A29F, N56A
VL: B1 VL
In the case of B27, the fold change of affinity in assay [1] worked out at 0 fold.

B28: dBBDu183H T100bY / dBBDu072L (antibody, name in Kabat numbering, V domains shown)
VH: B1 VH with A29F, T108Y
VL: B1 VL
As to B28, the fold change of affinity in assay [2] came out at 0 fold.

B29: dBBDu183H V95Y / dBBDu072L (antibody, name in Kabat numbering, V domains shown)
VH: B1 VH with A29F, V101Y
VL: B1 VL
Take B29: the fold change of affinity in assay [2] came to 0 fold.

B30: dBBDu183H A98W / dBBDu072L (antibody, name in Kabat numbering, V domains shown)
VH: B1 VH with A29F, A104W
VL: B1 VL
With B30, the fold change of affinity in assay [2] was 0 fold.

B31: dBBDu183H S100aW / dBBDu072L (antibody, name in Kabat numbering, V domains shown)
VH: B1 VH with A29F, S107W
VL: B1 VL
In the case of B31, the fold change of affinity in assay [2] came out at 0 fold.

B32: H183/L072 VH W33A (antibody, name in Kabat numbering, V domains shown)
VH: B1 VH with A29F, W33A
VL: B1 VL
For B32, the fold change of affinity in assay [1] is 0 fold.

B33: dBBDu183H S99W / dBBDu072L (antibody, name in Kabat numbering, V domains shown)
VH: B1 VH with A29F, S105W
VL: B1 VL
In the case of B33, the fold change of affinity in assay [2] worked out at 0 fold.

B34: H183/L072 VH H35L (antibody, name in Kabat numbering, V domains shown)
VH: B1 VH with A29F, H35L
VL: B1 VL
B34: in assay [1], the fold change of affinity was 0 fold.

B35: dBBDu183H H93W / dBBDu072L (antibody, name in Kabat numbering, V domains shown)
VH: B1 VH with A29F, H99W
VL: B1 VL
For the molecule B35, the fold change of affinity in assay [2] is 0 fold.

B36: dBBDu183H H93Y / dBBDu072L (antibody, name in Kabat numbering, V domains shown)
VH: B1 VH with A29F, H99Y
VL: B1 VL
With B36, in assay [2], the fold change of affinity came out at 0 fold.

B37: dBBDu183H A100Y / dBBDu072L (antibody, name in Kabat numbering, V domains shown)
VH: B1 VH with A29F, A106Y
VL: B1 VL
In the case of B37, the fold change of affinity in assay [2] was 0 fold.

B38: dBBDu183H A100W / dBBDu072L (antibody, name in Kabat numbering, V domains shown)
VH: B1 VH with A29F, A106W
VL: B1 VL
Take B38: the fold change of affinity in assay [2] came out at 0 fold.

B39: dBBDu183H P100eW / dBBDu072L (antibody, name in Kabat numbering, V domains shown)
VH: B1 VH with A29F, P111W
VL: B1 VL
On to B39, for which the fold change of affinity in assay [2] was determined as 0 fold.

B40: dBBDu183H A102W / dBBDu072L (antibody, name in Kabat numbering, V domains shown)
VH: B1 VH with A29F, A117W
VL: B1 VL
For B40, in assay [2], the fold change of affinity came to 0 fold.

B41: dBBDu183H A100fW / dBBDu072L (antibody, name in Kabat numbering, V domains shown)
VH: B1 VH with A29F, A112W
VL: B1 VL
Regarding B41, the fold change of affinity in assay [2] came to 0 fold.

B42: H183/L072 VH Q50A (antibody, name in Kabat numbering, V domains shown)
VH: B1 VH with A29F, Q50A
VL: B1 VL
Turning to B42, in assay [1], the fold change of affinity was determined as 0 fold.

B43: dBBDu183H V100iW / dBBDu072L (antibody, name in Kabat numbering, V domains shown)
VH: B1 VH with A29F, V115W
VL: B1 VL
Take B43: the fold change of affinity in assay [2] came to 0 fold.

B44: H183/L072 VH H35I (antibody, name in Kabat numbering, V domains shown)
VH: B1 VH with A29F, H35I
VL: B1 VL
Consider B44, for which the fold change of affinity in assay [1] came to 0 fold.

Values taken from patent publication US20210388087A1.
